Data reported in US7727960B2, “C5a receptor antagonists” (Jerini AG, priority 2003, dated 2010).
Read-outs that look alike come from different tables or passages of the source. Blank lines part the entries; values can stand above or below the molecule they belong to. Positions of bridges follow the written chain, without caps; N, C: chain ends. Non-standard residues stand in square brackets, D forms with d. Residues, ends and D or L forms follow the SMILES beside them. No end group written: not given here. Phenylbutanoyl = Phenylbutanoyl residue at the C-terminus; Phe(4-NH2) = Nc1ccc(C[C@H](N)C(=O)O)cc1; NEtPhe = CCN[C@@H](Cc1ccccc1)C(=O)O; Hyp = O=C(O)[C@@H]1C[C@@H](O)CN1; NMeF = CN[C@@H](Cc1ccccc1)C(=O)O; Cha = N[C@@H](CC1CCCCC1)C(=O)O; dCha = N[C@H](CC1CCCCC1)C(=O)O; AllylGly = C=CC[C@H](N)C(=O)O; Nle = CCCC[C@H](N)C(=O)O; Orn = NCCC[C@H](N)C(=O)O; dNMeA = CN[C@H](C)C(=O)O

Legend:
C5aR = biological target: T1, C5aR (Homo sapiens, UniProt P21730); details: PMN membranes, cited from earlier work
T1 construct: derived from measurements with isolated membranes from polymorphonuclear neutrophilic granulocytes (PMN membranes); host or cells: isolated membranes of polymorphonuclear neutrophilic granulocytes (PMN membranes)
T1 sequence (P21730 1-350): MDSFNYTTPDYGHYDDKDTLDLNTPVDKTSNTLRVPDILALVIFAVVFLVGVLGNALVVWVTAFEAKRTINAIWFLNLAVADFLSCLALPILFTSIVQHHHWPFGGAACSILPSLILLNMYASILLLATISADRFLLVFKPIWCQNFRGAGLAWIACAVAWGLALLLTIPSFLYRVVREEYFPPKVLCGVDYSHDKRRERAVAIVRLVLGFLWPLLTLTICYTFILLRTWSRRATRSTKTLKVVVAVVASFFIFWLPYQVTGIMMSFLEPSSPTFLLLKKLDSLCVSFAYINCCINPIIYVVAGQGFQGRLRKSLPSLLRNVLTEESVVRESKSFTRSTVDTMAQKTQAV

human C5aR (CD88) [1] = biological target: T2, human C5aR (CD88) (Homo sapiens, UniProt P21730); experiment: Determination of EC50 values in an enzyme release assay (agonistic activity, no C5a added); type: cell-based; details: cellular assay, up to a concentration of at least 1430 nM
T2 construct: expressed in transfected cells; host or cells: rat basophilic leukemia cells (RBL)
T2 sequence (P21730 1-350): T1 sequence (P21730 1-350)
Method: The determination of the EC50 value was performed in a way similar to the procedure described in example 11, with the only exception that 30 μl of the compound to be tested were mixed with 75 μl of the cell suspension described in example 11. There was no preincubation or addition of C5a for stimulation of the enzyme release.

human C5aR (CD88) [2] = biological target: T2, human C5aR (CD88); experiment: Determination of the IC50 value in an enzyme release assay (functional assay, antagonistic activity); type: cell-based
[3] = Solubility determination for selected C5aR-antagonists; type: physicochemical; details: for Solubility in 20 mM HEPES pH 7.4: 20 mM HEPES pH 7.4, 24 h at RT; for solubility: aqueous HEPES buffer (pH 7.4)
Method: Solubility of compounds was determined by the following procedure: 20 μl of a 10 mM stock solution (in DMSO) of the compound were diluted in 980 μl of the solvent to be tested. After incubation for 24 h at RT under shaking the samples are centrifuged at 11.000 rpm in an Eppendorf centrifuge. The supematant is determined by photometry. […] Therefor the compound was suspended at 10 mg/ml in the solvent systems of choice. The undissolved part was removed by centrifugation after 24 h. The UV-absorption of the supernatant was measured and compared to a respective reference value 60% MeOH).

human C5aR (CD88) [4] = biological target: T3, human C5aR (CD88) (human, UniProt P21730 1-350); experiment: cell-based or functional assay
T3 sequence (looked up): T1 sequence (P21730 1-350)

human C5aR (CD88) [5] = biological target: T3, human C5aR (CD88); experiment: cell-based or functional assay; remark: listed apart in the source
human C5aR (CD88) [6] = biological target: T3, human C5aR (CD88); experiment: cell-based or functional assay; remark: listed apart in the source
[7] = read-out: IC50 for the binding (WO 90/09162)
[8] = noteworthy = IC50 of less than 200 nM in the functional assay

Molecule: (N-Ethyl)Phe-Lys-Ala-Cha-Ala-Leu-N-Methyl(D)ala-Arg-OH ([NEtPhe]KA[Cha]AL[dNMeA]R-OH; N-terminus assumed; SMILES CCN[C@@H](Cc1ccccc1)C(=O)N[C@@H](CCCCN)C(=O)N[C@@H](C)C(=O)N[C@@H](CC1CCCCC1)C(=O)N[C@@H](C)C(=O)N[C@@H](CC(C)C)C(=O)N(C)[C@H](C)C(=O)N[C@@H](CCCNC(=N)N)C(=O)O)
IC50 (C5aR; [7]): 11 nM

agonistic activity (in words) (human C5aR (CD88) [1]): pure antagonists
inhibitory activity (in words) (human C5aR (CD88) [2]; [8]): noteworthy inhibitory activity
Solubility in 20 mM HEPES pH 7.4 [3]: 93 % of 200 μM
Molecule: CCCC[C@@H]1NC(=O)[C@H](Cc2c[nH]c3ccccc23)NC(=O)[C@@H](CC2CCCCC2)NC(=O)[C@@H]2CCCN2C(=O)[C@@H](NC(=O)[C@H](Cc2ccccc2)NC(=O)[C@H](CCCCN)NC(C)=O)CCCNC1=O [Compound 43, Ac-Lys-Phe-[Orn-Pro-cha-Trp-Nle]] (Ac-KF[Orn]P[dCha]W[Nle]; lactam 3-C)

Molecule: (N-Methyl)Phe-Lys-Pro-cha-Phe-Phenylbutanoyl ([NMeF]KP[dCha]F-Phenylbutanoyl)
IC50 (C5aR; read-out: IC50 binding to C5aR (WO 92/12168)): 2600 nM

Molecule: CC(=O)N[C@@H](Cc1ccccc1)C(=O)N[C@@H](CCCCN)C(=O)N[C@@H](C)C(=O)N[C@@H](CC1CCCCC1)C(=O)N[C@@H](C)C(=O)N[C@@H](CC(C)C)C(=O)N[C@H](C)C(=O)N[C@@H](Cc1ccc(O)cc1)C(=O)O [Ac-Phe-Lys-Ala-Cha-Ala-Leu-ala-Tyr-OH] (Ac-FKA[Cha]AL[dA]Y-OH)
IC50 (C5aR; [7]): 170 nM

agonistic activity (in words) (human C5aR (CD88) [1]): pure antagonists
inhibitory activity (in words) (human C5aR (CD88) [2]; [8]): noteworthy inhibitory activity
Solubility in 20 mM HEPES pH 7.4 [3]: 45 % of 200 μM
Molecule: CCCC[C@@H]1NC(=O)[C@H](Cc2c[nH]c3ccccc23)NC(=O)[C@@H](CC2CCCCC2)NC(=O)[C@@H]2CCCN2C(=O)[C@@H](NC(=O)[C@@H](N)Cc2ccccc2)CCCNC1=O [Compound 42, H-Phe-[Orn-Pro-cha-Trp-Nle]] (H-F[Orn]P[dCha]W[Nle]; lactam 2-C)

agonistic activity (in words) (human C5aR (CD88) [1]): pure antagonists
inhibitory activity (in words) (human C5aR (CD88) [2]; [8]): noteworthy inhibitory activity
Solubility in 20 mM HEPES pH 7.4 [3]: 8 % of 200 μM
solubility [3]: 8%
Molecule: CC(=O)N[C@@H](Cc1ccccc1)C(=O)N[C@H]1CCCNC(=O)[C@H](Cc2ccccc2)NC(=O)[C@H](Cc2c[nH]c3ccccc23)NC(=O)[C@@H](CC2CCCCC2)NC(=O)[C@@H]2CCCN2C1=O [Compound 1, Ac-Phe-[Orn-Pro-cha-Trp-Phe]] (Ac-F[Orn]P[dCha]WF; lactam 2-C)
IC50-value compared to compound 40 (in words) (human C5aR (CD88) [2]; arginine replaced by hydrophobic substitutions): without a significant increase of the IC50-value

Molecule: CC(=O)N[C@@H](Cc1ccccc1)C(=O)N[C@H]1CCCNC(=O)[C@H](Cc2ccccc2)NC(=O)[C@H](Cc2c[nH]c3ccccc23)NC(=O)[C@@H](CC2CCCCC2)NC(=O)[C@@H]2C[C@@H](O)CN2C1=O [Compound 2, Ac-Phe-[Orn-Hyp-cha-Trp-Phe]] (Ac-F[Orn][Hyp][dCha]WF; lactam 2-C)
agonistic activity (in words) (human C5aR (CD88) [1]): pure antagonists
inhibitory activity (in words) (human C5aR (CD88) [2]): noteworthy inhibitory activity
Solubility in 20 mM HEPES pH 7.4 [3]: 13 % of 200 μM
solubility [3]: 13%

IC50, enzyme release assay (human C5aR (CD88) [4]): 23 nM
IC50 activity group, enzyme release assay (human C5aR (CD88) [5]): ≤ 50 nM
EC50, agonistic activity, enzyme release assay (human C5aR (CD88) [6]): > 1430 nM
B1: Ac-Phe-[Orn-Pro-cha-Trp-Phe] (peptide)
peptide: Ac-F[Orn]P[dCha]WF
modifications: lactam (positions not given here); not fully specified (bridges); printed as Ac-Phe-[Orn-Pro-cha-Trp-Phe]

IC50 activity group, enzyme release assay (human C5aR (CD88) [5]): ≤ 200 nM
EC50, agonistic activity, enzyme release assay (human C5aR (CD88) [6]): > 1430 nM
Molecule: {HOCH2(CHOH)4‑C═N‑O‑CH2‑CO}-F[Orn]P[dCha]W[Nle] (lactam 2-C) [HOCH2(CHOH)4-C═N-O-CH2-CO-Phe-[Orn-Pro-cha-Trp-Nle]]

IC50, functional assay (human C5aR (CD88) [4]): > 30000 nM
IC50 activity group, enzyme release assay (human C5aR (CD88) [5]): > 2000 nM
B2: Ac-Ala-[Orn-Pro-cha-Trp-Arg] (peptide)
peptide: Ac-A[Orn]P[dCha]WR
modifications: lactam 2-C
SMILES: CC(=O)N[C@@H](C)C(=O)N[C@H]1CCCNC(=O)[C@H](CCCNC(=N)N)NC(=O)[C@H](Cc2c[nH]c3ccccc23)NC(=O)[C@@H](CC2CCCCC2)NC(=O)[C@@H]2CCCN2C1=O

EC50, agonistic activity, enzyme release assay (human C5aR (CD88) [6]): > 1430 nM
Molecule: H-F[Orn]P[dCha]W[Nle] (lactam 2-C; not fully specified; printed as H-Phe-[Orn-Pro-cha-Trp-Nle]) [H-Phe-[Orn-Pro-cha-Trp-Nle]]

IC50, functional assay (human C5aR (CD88) [4]): > 30000 nM
IC50 activity group, enzyme release assay (human C5aR (CD88) [5]): > 2000 nM
B3: Ac-Phe-[Orn-Pro-ala-Trp-Arg] (peptide)
peptide: Ac-F[Orn]P[dA]WR
modifications: lactam (positions not given here); not fully specified (bridges); printed as Ac-Phe-[Orn-Pro-ala-Trp-Arg]

IC50, functional assay (human C5aR (CD88) [4]): 5600 nM
IC50 activity group, enzyme release assay (human C5aR (CD88) [5]): > 2000 nM
B4: Ac-Phe-[Orn-Pro-cha-Trp-Ala] (peptide)
peptide: Ac-F[Orn]P[dCha]WA
modifications: lactam (positions not given here); not fully specified (bridges); printed as Ac-Phe-[Orn-Pro-cha-Trp-Ala]

IC50 activity group, enzyme release assay (human C5aR (CD88) [5]): ≤ 50 nM
EC50, agonistic activity, enzyme release assay (human C5aR (CD88) [6]): > 1430 nM
B5: Ac-Lys-Phe-[Orn-Pro-cha-Trp-Nle] (peptide)
peptide: Ac-KF[Orn]P[dCha]W[Nle]
modifications: lactam 3-C
SMILES: CCCC[C@@H]1NC(=O)[C@H](Cc2c[nH]c3ccccc23)NC(=O)[C@@H](CC2CCCCC2)NC(=O)[C@@H]2CCCN2C(=O)[C@@H](NC(=O)[C@H](Cc2ccccc2)NC(=O)[C@H](CCCCN)NC(C)=O)CCCNC1=O

IC50, functional assay as used in this application (human C5aR (CD88) [4]): 1300 nM
IC50 activity group, enzyme release assay (human C5aR (CD88) [5]): ≤ 2000 nM
B6: Ac-Phe-Lys-Ala-Cha-Ala-Leu-ala-Tyr-OH (peptide)
peptide: Ac-FKA[Cha]AL[dA]Y-OH
SMILES: CC(=O)N[C@@H](Cc1ccccc1)C(=O)N[C@@H](CCCCN)C(=O)N[C@@H](C)C(=O)N[C@@H](CC1CCCCC1)C(=O)N[C@@H](C)C(=O)N[C@@H](CC(C)C)C(=O)N[C@H](C)C(=O)N[C@@H](Cc1ccc(O)cc1)C(=O)O

IC50, enzyme release assay (human C5aR (CD88) [4]): 30 nM
IC50 activity group, enzyme release assay (human C5aR (CD88) [5]): ≤ 50 nM
B7: Ac-Phe-[Orn-Pro-cha-Trp-Paf] (peptide)
peptide: Ac-F[Orn]P[dCha]W[Phe(4-NH2)]
modifications: lactam (positions not given here); not fully specified (bridges); printed as Ac-Phe-[Orn-Pro-cha-Trp-Paf]

EC50, agonistic activity, enzyme release assay (human C5aR (CD88) [6]): > 1430 nM
Molecule: {Ph‑CH2‑CH2‑CO}-[Orn]P[dCha]W[Nle] (lactam 1-C) [Ph-CH2-CH2-CO-[Orn-Pro-cha-Trp-Nle]]

IC50, functional assay (human C5aR (CD88) [4]): > 30000 nM
IC50 activity group, enzyme release assay (human C5aR (CD88) [5]): > 2000 nM
B8: Ac-Phe-[Orn-Pro-cha-Ala-Arg] (peptide)
peptide: Ac-F[Orn]P[dCha]AR
modifications: lactam (positions not given here); not fully specified (bridges); printed as Ac-Phe-[Orn-Pro-cha-Ala-Arg]

IC50 activity group, enzyme release assay (human C5aR (CD88) [5]): ≤ 10 nM
EC50, agonistic activity, enzyme release assay (human C5aR (CD88) [6]): > 1430 nM
B9: Ac-Phe-[Orn-Pro-cha-Trp-Eaf] (peptide)
peptide: Ac-F[Orn]P[dCha]W[AllylGly]
modifications: lactam (positions not given here); not fully specified (bridges); printed as Ac-Phe-[Orn-Pro-cha-Trp-Eaf]

IC50 activity group, enzyme release assay (human C5aR (CD88) [5]): ≤ 50 nM
EC50, agonistic activity, enzyme release assay (human C5aR (CD88) [6]): > 1430 nM
B10: Ac-Phe-[Orn-Pro-cha-Trp-Nle] (peptide)
peptide: Ac-F[Orn]P[dCha]W[Nle]
modifications: lactam (positions not given here); not fully specified (bridges); printed as Ac-Phe-[Orn-Pro-cha-Trp-Nle]

IC50, enzyme release assay (human C5aR (CD88) [4]): 8700 nM
IC50 activity group, enzyme release assay (human C5aR (CD88) [5]): > 2000 nM
B11: Ac-Phe-[Orn-Pro-cha-Trp-Lys] (peptide)
peptide: Ac-F[Orn]P[dCha]WK
modifications: lactam (positions not given here); not fully specified (bridges); printed as Ac-Phe-[Orn-Pro-cha-Trp-Lys]
